In the test the target is T1, human GIP receptor (human), P48546.
T1 chain: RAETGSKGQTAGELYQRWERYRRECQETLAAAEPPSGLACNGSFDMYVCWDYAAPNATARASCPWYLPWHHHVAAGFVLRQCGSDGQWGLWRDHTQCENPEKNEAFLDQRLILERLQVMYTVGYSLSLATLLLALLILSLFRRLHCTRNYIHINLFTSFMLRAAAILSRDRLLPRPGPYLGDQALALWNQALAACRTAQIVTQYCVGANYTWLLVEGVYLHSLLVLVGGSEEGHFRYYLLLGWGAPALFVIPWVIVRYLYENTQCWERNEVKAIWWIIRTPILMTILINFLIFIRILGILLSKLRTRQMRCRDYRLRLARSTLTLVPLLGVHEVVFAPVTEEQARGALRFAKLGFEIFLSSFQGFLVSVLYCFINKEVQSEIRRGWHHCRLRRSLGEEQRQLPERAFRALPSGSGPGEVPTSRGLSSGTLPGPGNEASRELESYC
The test is described as follows: 125I-GIP displacement, HEK-GIPR membranes.

B1: 0601GIP4843 (peptide)
peptide: HGEGTLISDYSIAMDKIHQQDFVNWLLAQKPKKIRYS
modifications: not checked
In turn, B1 registered a % Inh 10 nM of 3%.

For the origin of these results see US20130281374A1.
